Substitutions are numbered along the chain they refer to. Names may count otherwise.
B1: dBBDu_186 / dBBDu_L098 (antibody, human IgG1, V domains shown)
VH: QVQLVESGGGLVQPGRSLRLSCAASGFTFSNAWMHWVRQAPGKGLEWVAQIKDRSNQYATYYAPSVKGRFTISRDDSKNSIYLQMNSLKTEDTAVYYCHYVHYAQASTVLPAFGVDAWGQGTTVTVSS
VL: DIVMTQSPLSLPVTPGEPASISCAASEELVHINRYIFLHWYQQKPGQAPRLLIYKVSNRFIGVPDRFSGSGSGTDFTLKISRVEAEDVGVYYCAQGSQVPFTFGQGTKLEIK
notes: Tested as IgG (human IgG1 constant region, kappa light chain); also called dBBDu186/L098
B2: dBBDu_186 / dBBDu_L106 (antibody, human IgG1, V domains shown)
VH: B1 VH
VL: B1 VL with A24S, A25T, V30L, Y35F, S57A, I61M
notes: Tested as IgG (human IgG1 constant region, kappa light chain); also called dBBDu186/L106
B3: dBBDu_186 / dBBDu_L100 (antibody, human IgG1, V domains shown)
VH: B1 VH
VL: B1 VL with A24S, S57Y, I61M, A94G, Q98S
notes: Tested as IgG (human IgG1 constant region, kappa light chain); also called dBBDu186/L100
B4: dBBDu_186 / dBBDu_L108 (antibody, human IgG1, V domains shown)
VH: B1 VH
VL: B1 VL with A24R, A25T, V30L, Y35F, I36T, I61M, Q98A
notes: Tested as IgG (human IgG1 constant region, kappa light chain); also called dBBDu186/L108
B5: dBBDu_193 / dBBDu.L132 (antibody, human IgG1, V domains shown)
VH: B1 VH with A104S, Q105A, V109L, A112S
VL: B1 VL with A24Q, A25T, Y35F, I61S, S97T, Q98S
notes: Tested as IgG (human IgG1 constant region, kappa light chain); also called dBBDu193/L132; dBBDu_193/L132
B6: dBBDu_189 / dBBDu_L126 (antibody, human IgG1, V domains shown)
VH: B1 VH with V48I, T108S, V109L, A112S
VL: B1 VL with A24R, A25T, V30L, S57Q, I61S, Q98A
notes: Tested as IgG (human IgG1 constant region, kappa light chain); also called dBBDu189/L126
B7: dBBDu_189 / dBBDu_L119 (antibody, human IgG1, V domains shown)
VH: B1 VH with V48I, T108S, V109L, A112S
VL: B1 VL with A24T, E27Q, Y35F
notes: Tested as IgG (human IgG1 constant region, kappa light chain); also called dBBDu189/L119
B8: dBBDu_193 / dBBDu.L127 (antibody, human IgG1, V domains shown)
VH: B1 VH with A104S, Q105A, V109L, A112S
VL: B1 VL with A24R, V30L, Y35H, S57Y, I61T, S97T, Q98S
notes: Tested as IgG (human IgG1 constant region, kappa light chain); also called dBBDu193/L127; dBBDu_193/L127
B9: dBBDu_167 / dBBDu.L094 (antibody, human IgG1, V domains shown)
VH: B1 VH with R54K, S55G, Q57L, T60A, Q105S, S107G, T108G, V109G, A112G
VL: B1 VL with A24Y, V30L, Y35H, F37Y, S57Y, I61N, Q98S
notes: Tested as IgG (human IgG1 constant region, kappa light chain); also called dBBDu167/L094; dBBDu_167/L094
B10: GLS3000 Q93Y one-amino acid altered one-arm antibody (CE115HA000-pE22Hh / Kn010G3 / GLS3000 Q93Y-kappa) (antibody, human IgG1, kappa, L234A L235A, N297A, name in Kabat numbering)
heavy: QVQLVESGGGVVQPGRSLRLSCAASGFTFSNAWMHWVRQAPGKGLEWVAQIKAKSNNYATYYAESVKGRFTISRDDSKNSLYLQMNSLKTEDTAVYYCRYVHYGAYYGVDAWGQGTTVTVSSASTKGPSVFPLAPSSKSTSGGTAALGCLVKDYFPEPVTVSWNSGALTSGVHTFPAVLQSSGLYSLSSVVTVPSSSLGTQTYICNVNHKPSNTKVDKKVEPKSCDKTHTCPPCPAPEAAGGPSVFLFPPKPKDTLMISRTPEVTCVVVDVSHEDPEVKFNWYVDGVEVHNAKTKPREEQYASTYRVVSVLTVLHQDWLNGKEYKCKVSNKALPAPIEKTISKAKGQPREPQVYTLPPSRCELTKNQVSLSCAVKGFYPSDIAVEWESNGQPENNYKTTPPVLDSDGSFFLVSKLTVDKSRWQQGNVFSCSVMHEALHNHYTQKSLSLSPDYKDDDDK
chain: EPKSSDKTHTCPPCPAPELLGGPSVFLFPPKPKDTLMISRTPEVTCVVVDVSHEDPEVKFNWYVDGVEVHNAKTKPREEQYNSTYRVVSVLTVLHQDWLNGKEYKCKVSNKALPAPIEKTISKAKGQPREPQVCTLPPSRDELTKNQVSLWCLVKGFYPSDIAVEWESNGQPENNYKTTPPVLDSDGSFFLYSKLTVDKSRWQQGNVFSCSVMHEALHNRYTQKSLSLSP
light: DIVMTQSPLSLPVTPGEPASISCRSSQSLVHSNRNTYLHWYQQKPGQAPRLLIYKVSNRFSGVPDRFSGSGSGTDFTLKISRVEAEDVGVYYCGQGTYVPYTFGQGTKLEIKRTVAAPSVFIFPPSDEQLKSGTASVVCLLNNFYPREAKVQWKVDNALQSGNSQESVTEQDSKDSTYSLSSTLTLSKADYEKHKVYACEVTHQGLSSPVTKSFNRGEC
notes: One-arm antibody; substitution position in Kabat numbering; also called L chain altered form, Kabat 93 Q to Y
B11: GLS3000 V94Y one-amino acid altered one-arm antibody (CE115HA000-pE22Hh / Kn010G3 / GLS3000 V94Y-kappa) (antibody, human IgG1, kappa, L234A L235A, N297A, name in Kabat numbering)
heavy: B10 heavy
chain: B10 chain
light: B10 light with Y98Q, V99Y
notes: One-arm antibody; substitution position in Kabat numbering; also called L chain altered form, Kabat 94 V to Y
B12: GLS3000 V94R one-amino acid altered one-arm antibody (CE115HA000-pE22Hh / Kn010G3 / GLS3000 V94R-kappa) (antibody, human IgG1, kappa, L234A L235A, N297A, name in Kabat numbering)
heavy: B10 heavy
chain: B10 chain
light: B10 light with Y98Q, V99R
notes: One-arm antibody; substitution position in Kabat numbering; also called L chain altered form, Kabat 94 V to R
B13: GLS3000 R77S one-amino acid altered one-arm antibody (CE115HA000-pE22Hh / Kn010G3 / GLS3000 R77S-kappa) (antibody, human IgG1, kappa, L234A L235A, N297A, name in Kabat numbering)
heavy: B10 heavy
chain: B10 chain
light: B10 light with R82S, Y98Q
notes: One-arm antibody; substitution position in Kabat numbering; also called L chain altered form, Kabat 77 R to S
B14: GLS3000 T92P one-amino acid altered one-arm antibody (CE115HA000-pE22Hh / Kn010G3 / GLS3000 T92P-kappa) (antibody, human IgG1, kappa, L234A L235A, N297A, name in Kabat numbering)
heavy: B10 heavy
chain: B10 chain
light: B10 light with T97P, Y98Q
notes: One-arm antibody; substitution position in Kabat numbering; also called L chain altered form, Kabat 92 T to P
B15: GLS3000 T92S one-amino acid altered one-arm antibody (CE115HA000-pE22Hh / Kn010G3 / GLS3000 T92S-kappa) (antibody, human IgG1, kappa, L234A L235A, N297A, name in Kabat numbering)
heavy: B10 heavy
chain: B10 chain
light: B10 light with T97S, Y98Q
notes: One-arm antibody; substitution position in Kabat numbering; also called L chain altered form, Kabat 92 T to S
B16: GLS3000 V94T one-amino acid altered one-arm antibody (CE115HA000-pE22Hh / Kn010G3 / GLS3000 V94T-kappa) (antibody, human IgG1, kappa, L234A L235A, N297A, name in Kabat numbering)
heavy: B10 heavy
chain: B10 chain
light: B10 light with Y98Q, V99T
notes: One-arm antibody; substitution position in Kabat numbering; also called L chain altered form, Kabat 94 V to T
B17: GLS3000 T97P one-amino acid altered one-arm antibody (CE115HA000-pE22Hh / Kn010G3 / GLS3000 T97P-kappa) (antibody, human IgG1, kappa, L234A L235A, N297A, name in Kabat numbering)
heavy: B10 heavy
chain: B10 chain
light: B10 light with Y98Q, T102P
notes: One-arm antibody; substitution position in Kabat numbering; also called L chain altered form, Kabat 97 T to P
B18: GLS3000 V94Q one-amino acid altered one-arm antibody (CE115HA000-pE22Hh / Kn010G3 / GLS3000 V94Q-kappa) (antibody, human IgG1, kappa, L234A L235A, N297A, name in Kabat numbering)
heavy: B10 heavy
chain: B10 chain
light: B10 light with Y98Q, V99Q
notes: One-arm antibody; substitution position in Kabat numbering; also called L chain altered form, Kabat 94 V to Q
B19: GLS3000 V94S one-amino acid altered one-arm antibody (CE115HA000-pE22Hh / Kn010G3 / GLS3000 V94S-kappa) (antibody, human IgG1, kappa, L234A L235A, N297A, name in Kabat numbering)
heavy: B10 heavy
chain: B10 chain
light: B10 light with Y98Q, V99S
notes: One-arm antibody; substitution position in Kabat numbering; also called L chain altered form, Kabat 94 V to S
B20: GLS3000 V94W one-amino acid altered one-arm antibody (CE115HA000-pE22Hh / Kn010G3 / GLS3000 V94W-kappa) (antibody, human IgG1, kappa, L234A L235A, N297A, name in Kabat numbering)
heavy: B10 heavy
chain: B10 chain
light: B10 light with Y98Q, V99W
notes: One-arm antibody; substitution position in Kabat numbering; also called L chain altered form, Kabat 94 V to W
B21: GLS3000 T92Y one-amino acid altered one-arm antibody (CE115HA000-pE22Hh / Kn010G3 / GLS3000 T92Y-kappa) (antibody, human IgG1, kappa, L234A L235A, N297A, name in Kabat numbering)
heavy: B10 heavy
chain: B10 chain
light: B10 light with T97Y, Y98Q
notes: One-arm antibody; substitution position in Kabat numbering; also called L chain altered form, Kabat 92 T to Y

Molecular target: T1, cynomolgus monkey CD137 (cynomolgus monkey, UniProt Q07011 24-186 (human entry), limits assumed)
T1 construct: Soluble analyte in the Biacore assay; also called cyno CD137
T1 chain: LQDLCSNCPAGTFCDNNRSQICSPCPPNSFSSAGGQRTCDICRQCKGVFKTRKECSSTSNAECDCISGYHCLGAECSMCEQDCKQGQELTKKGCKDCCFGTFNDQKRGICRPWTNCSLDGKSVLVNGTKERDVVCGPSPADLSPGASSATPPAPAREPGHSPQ
Experiment: SPR Biacore T200, IgG captured on protein A, antigen as analyte, 25 C;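 further: antigens flowed over a CM3 chip for 120 s association, KD derived from ka and kd, running buffer (ACES, NaCl, Tween20, pH 7.4) served as blank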
Description: (§1) Sensor chip CM3 (GE Healthcare) was immobilized with an appropriate amount of sure protein A (GE Healthcare) by amine coupling. The selected antibodies were captured by the chip to allow interaction to human CD3ed, human CD137 and cyno CD137 as an antigen. The running buffer used was 20 mmol/l ACES, 150 mmol/l NaCl, 0.05% (w/v) Tween20, pH 7.4. All measurements were carried out at 25 degrees C. The antigens were diluted using the running buffer.
(§2) Diluted antigen solutions and the running buffer which is the blank were loaded at a flow rate of 30 micro L/min for 120 seconds to allow each of the antigens to interact with the antibody captured on the sensor chip. […] Next, to regenerate the sensor chip, 10 mmol/L glycine-HCl, pH 1.5 was loaded at a flow rate of 30 micro L/min for 30 seconds and 50 mmol/L NaOH was loaded at a flow rate 30 micro L/min for 30 seconds.
(§3) Kinetic parameters such as the association rate constant ka (1/Ms) and the dissociation rate constant kd (1/s) were calculated based on the sensorgrams obtained by the measurements. The dissociation constant KD(M) was calculated from these constants. Each parameter was calculated using the Biacore T200 Evaluation Software (GE Healthcare).

| Binder | Kd | koff | kon |
| --- | --- | --- | --- |
| B1 | 134 µM | 0.00119 s⁻¹ |  |
| B2 | 61.3 µM | 0.00126 s⁻¹ |  |
| B3 | 70.4 µM | 0.00208 s⁻¹ |  |
| B4 | 16.1 µM | 0.00361 s⁻¹ | 225 M⁻¹ s⁻¹ |
| B5 | 757 µM | 0.0061 s⁻¹ |  |
| B6 | 3.06 µM | 0.00247 s⁻¹ | 807 M⁻¹ s⁻¹ |
| B7 | 35.7 µM | 0.00122 s⁻¹ |  |
| B8 | 28.1 µM | 0.00316 s⁻¹ | 112 M⁻¹ s⁻¹ |
| B9 | 6.92 µM | 0.0748 s⁻¹ | 10800 M⁻¹ s⁻¹ |

molecular target: T2, human CD137 (human, UniProt Q07011 24-186); experiment: as above
T2 construct: Soluble analyte in the Biacore assay; also called 4-1BB; hCD137
T2 sequence (Q07011 24-186 limits assumed): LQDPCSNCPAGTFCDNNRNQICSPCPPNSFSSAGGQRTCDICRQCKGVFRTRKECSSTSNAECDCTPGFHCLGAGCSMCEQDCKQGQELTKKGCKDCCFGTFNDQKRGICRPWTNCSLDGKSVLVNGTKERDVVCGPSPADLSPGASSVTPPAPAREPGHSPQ
Description: as §1, §2, §3

| Binder | Kd | koff | kon |
| --- | --- | --- | --- |
| B1 | 2.31 µM | 0.000534 s⁻¹ | 231 M⁻¹ s⁻¹ |
| B2 | 3.44 µM | 0.000447 s⁻¹ | 130 M⁻¹ s⁻¹ |
| B3 | 1.91 µM | 0.000746 s⁻¹ | 391 M⁻¹ s⁻¹ |
| B4 | 2.41 µM | 0.00081 s⁻¹ | 335 M⁻¹ s⁻¹ |
| B5 | 4.48 µM | 0.00211 s⁻¹ | 471 M⁻¹ s⁻¹ |
| B6 | 0.513 µM | 0.000688 s⁻¹ | 1340 M⁻¹ s⁻¹ |
| B7 | 2.71 µM | 0.000402 s⁻¹ | 148 M⁻¹ s⁻¹ |
| B8 | 3.3 µM | 0.00145 s⁻¹ | 440 M⁻¹ s⁻¹ |
| B9 | 8.43 µM | 0.0102 s⁻¹ | 1210 M⁻¹ s⁻¹ |

molecular target: T3, human CD3ed (human, UniProt P07766 23-126; P04234 22-105, limits assumed); experiment: as above
T3 construct: The construct injected as 'human CD3ed' in the Biacore assay is not defined; also called human CD3 epsilon/delta heterodimer
T3 sequence (P07766 23-126 limits assumed, chain 1 of 2): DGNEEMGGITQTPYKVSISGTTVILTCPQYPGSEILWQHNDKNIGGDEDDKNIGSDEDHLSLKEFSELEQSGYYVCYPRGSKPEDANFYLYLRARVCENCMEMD
T3 sequence (P04234 22-105 limits assumed, chain 2 of 2): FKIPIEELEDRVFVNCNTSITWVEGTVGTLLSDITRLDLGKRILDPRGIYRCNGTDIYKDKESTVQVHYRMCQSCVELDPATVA
Description: as §1, §2, §3

| Binder | Kd | koff | kon |
| --- | --- | --- | --- |
| B1 | 1.88 µM | 0.0209 s⁻¹ | 11100 M⁻¹ s⁻¹ |
| B2 | 3.09 µM | 0.0318 s⁻¹ | 10300 M⁻¹ s⁻¹ |
| B3 | 3.36 µM | 0.0546 s⁻¹ | 16200 M⁻¹ s⁻¹ |
| B4 | 3.01 µM | 0.0408 s⁻¹ | 13600 M⁻¹ s⁻¹ |
| B5 | 2.03 µM | 0.0201 s⁻¹ | 9890 M⁻¹ s⁻¹ |
| B6 | 2.57 µM | 0.0281 s⁻¹ | 10900 M⁻¹ s⁻¹ |
| B7 | 2.06 µM | 0.0258 s⁻¹ | 12500 M⁻¹ s⁻¹ |
| B8 | 1.51 µM | 0.0191 s⁻¹ | 12600 M⁻¹ s⁻¹ |
| B9 | 0.349 µM | 0.021 s⁻¹ | 60200 M⁻¹ s⁻¹ |

molecular target: T4, CD3 epsilon homodimer protein (UniProt P07766 23-126); experiment: SPR Biacore T200, CD3 epsilon homodimer immobilised on CM4, one-arm antibody as analyte, single-cycle kinetics; reference unaltered GLS3000 antibody;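 further: CD3 epsilon homodimer attached to the CM4 chip via amine coupling, measured at 25 °C with HBS-EP+ as running buffer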
T4 construct: also called CD3 (CD3 epsilon)
T4 sequence (P07766 23-126): as the sequence (P07766 23-126 limits assumed, chain 1 of 2) above
Description: An appropriate amount of CD3 epsilon homodimer protein was immobilized onto Sensor chip CM4 (GE Healthcare Japan Corp.) by the amine coupling method. Then, the antibody having an appropriate concentration was injected thereto as an analyte and allowed to interact with the CD3 epsilon homodimer protein on the sensor chip. Then, the sensor chip was regenerated by the injection of 10 mmol/L glycine-HCl (pH 1.5). The assay was conducted at 25 degrees C., and HBS-EP+(GE Healthcare Japan Corp.) was used as a running buffer. […] Each parameter was calculated using Biacore T200 Evaluation Software (GE Healthcare Japan Corp.).
Specifically, when the amount of the GLS3000-containing antibody bound was defined as X and the amount of the L chain one-amino acid altered form bound was defined as Y, a value of Z (ratio of amounts bound)=Y/X was used.

| Binder | dissociation constant KD(M) ratio of L chain altered form to GLS3000 |
| --- | --- |
| B10 | 0.76 ratio |
| B11 | 2.45 ratio |
| B12 | 1.11 ratio |
| B13 | 0.94 ratio |
| B14 | 26.7 ratio |
| B15 | 0.81 ratio |
| B16 | 1.06 ratio |
| B17 | 3.35 ratio |
| B18 | 1.1 ratio |
| B19 | 0.81 ratio |
| B20 | 1.81 ratio |
| B21 | 2.55 ratio |

From patent publication US20240270846A1 (published 2024)
